The series relates to tet operator sequence. Nature of the series: β-galactosidase activity of a tetracycline-regulated promoter in transformed E. coli with revTetR, in the presence and absence of anhydrotetracycline (atc). It is filed as cell-based, Escherichia coli. As to conditions: for β-Galactosidase Activity, Cultured Without ATC: RevTetR isolate cultured in the absence of anhydrotetracycline (ATC); for β-Galactosidase Activity, Cultured With ATC: RevTetR isolate cultured in the presence of anhydrotetracycline (ATC). In outline:
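TetR(BD) chimera mutants (TetR(B) residues 1–50, TetR(D) 51–208) expressed in E. coli regulating a tet operator-controlled lacZ. β-Galactosidase measured in Miller units at 28 °C and 37 °C with and without anhydrotetracycline; reported as percent of maximal expression without Tet repressor.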

B1: TetRrevAF5/13: revTetR(BD) L14L V20G V99E (protein)
chain: MSRLDKSKVINSALELLNEGGIEGLTTRKLAQKLGVEQPTLYWHVKNKRALLDALAVEILARHHDYSLPAAGESWQSFLRNNAMSFRRALLRYRDGAKEHLGTRPDEKQYDTVETQLRFMTENGFSLRDGLYAISAVSHFTLGAVLEQQEHTAALTDRPAAPDENLPPLLREALQIMDSDDGEQAFLHGLESLIRGFEVQLTALLQIV
modifications: Modified tetracycline repressor
notes: revTetR(BD) L14L V20G V99E
On to B1, for which the “β-Galactosidase Activity, Cultured Without ATC” value was found to be 105.942 and the “β-Galactosidase Activity, Cultured With ATC” value is reported as 4.4642.

B2: TetRrev96/99-9: revTetR(BD) G96H V99N (protein)
chain: MSRLDKSKVINSALELLNEVGIEGLTTRKLAQKLGVEQPTLYWHVKNKRALLDALAVEILARHHDYSLPAAGESWQSFLRNNAMSFRRALLRYRDHAKNHLGTRPDEKQYDTVETQLRFMTENGFSLRDGLYAISAVSHFTLGAVLEQQEHTAALTDRPAAPDENLPPLLREALQIMDSDDGEQAFLHGLESLIRGFEVQLTALLQIV
modifications: Modified tetracycline repressor
notes: revTetR(BD) G96H V99N
Take B2: the “β-Galactosidase Activity, Cultured Without ATC” value is listed as 71.6829 and the “β-Galactosidase Activity, Cultured With ATC” value is listed as 14.528.

B3: TetRrevAF6/5: revTetR(BD) V20V I22V E23D D95N H100P (protein)
chain: MSRLDKSKVINSALELLNEVGVDGLTTRKLAQKLGVEQPTLYWHVKNKRALLDALAVEILARHHDYSLPAAGESWQSFLRNNAMSFRRALLRYRNGAKVPLGTRPDEKQYDTVETQLRFMTENGFSLRDGLYAISAVSHFTLGAVLEQQEHTAALTDRPAAPDENLPPLLREALQIMDSDDGEQAFLHGLESLIRGFEVQLTALLQIV
modifications: Modified tetracycline repressor
notes: revTetR(BD) V20V I22V E23D D95N H100P
With B3, the “β-Galactosidase Activity, Cultured Without ATC” value came to 102.848 and the “β-Galactosidase Activity, Cultured With ATC” value was 2.8572.

B4: TetRrevAF6/1: revTetR(BD) A13A E19V V20A D95I G96G (protein)
chain: MSRLDKSKVINSALELLNVAGIEGLTTRKLAQKLGVEQPTLYWHVKNKRALLDALAVEILARHHDYSLPAAGESWQSFLRNNAMSFRRALLRYRIGAKVHLGTRPDEKQYDTVETQLRFMTENGFSLRDGLYAISAVSHFTLGAVLEQQEHTAALTDRPAAPDENLPPLLREALQIMDSDDGEQAFLHGLESLIRGFEVQLTALLQIV
modifications: Modified tetracycline repressor
notes: revTetR(BD) A13A E19V V20A D95I G96G
For the molecule B4, the “β-Galactosidase Activity, Cultured Without ATC” value was 72.8186 and the “β-Galactosidase Activity, Cultured With ATC” value is reported as 3.7966.

B5: TetRrev96/99-7: revTetR(BD) G96L V99K (protein)
chain: MSRLDKSKVINSALELLNEVGIEGLTTRKLAQKLGVEQPTLYWHVKNKRALLDALAVEILARHHDYSLPAAGESWQSFLRNNAMSFRRALLRYRDLAKKHLGTRPDEKQYDTVETQLRFMTENGFSLRDGLYAISAVSHFTLGAVLEQQEHTAALTDRPAAPDENLPPLLREALQIMDSDDGEQAFLHGLESLIRGFEVQLTALLQIV
modifications: Modified tetracycline repressor
notes: revTetR(BD) G96L V99K
Consider B5, for which the “β-Galactosidase Activity, Cultured Without ATC” value is recorded as 55.0127 and the “β-Galactosidase Activity, Cultured With ATC” value is reported as 13.224.

B6: TetRrev96/99-2: revTetR(BD) G99K V99A (protein)
chain: MSRLDKSKVINSALELLNEVGIEGLTTRKLAQKLGVEQPTLYWHVKNKRALLDALAVEILARHHDYSLPAAGESWQSFLRNNAMSFRRALLRYRDKAKAHLGTRPDEKQYDTVETQLRFMTENGFSLRDGLYAISAVSHFTLGAVLEQQEHTAALTDRPAAPDENLPPLLREALQIMDSDDGEQAFLHGLESLIRGFEVQLTALLQIV
modifications: Modified tetracycline repressor
notes: revTetR(BD) G99K V99A
As to B6, the “β-Galactosidase Activity, Cultured Without ATC” value amounted to 94.5832 and the “β-Galactosidase Activity, Cultured With ATC” value is given as 31.604.

B7: TetRrev96/99-4: revTetR(BD) G96P V99S (protein)
chain: MSRLDKSKVINSALELLNEVGIEGLTTRKLAQKLGVEQPTLYWHVKNKRALLDALAVEILARHHDYSLPAAGESWQSFLRNNAMSFRRALLRYRDPAKSHLGTRPDEKQYDTVETQLRFMTENGFSLRDGLYAISAVSHFTLGAVLEQQEHTAALTDRPAAPDENLPPLLREALQIMDSDDGEQAFLHGLESLIRGFEVQLTALLQIV
modifications: Modified tetracycline repressor
notes: revTetR(BD) G96P V99S
On to B7, for which the “β-Galactosidase Activity, Cultured Without ATC” value turned out to be 109.291 and the “β-Galactosidase Activity, Cultured With ATC” value is reported as 32.997.

B8: TetRrev96/99-8: revTetR(BD) G96N V99H (protein)
chain: MSRLDKSKVINSALELLNEVGIEGLTTRKLAQKLGVEQPTLYWHVKNKRALLDALAVEILARHHDYSLPAAGESWQSFLRNNAMSFRRALLRYRDNAKHHLGTRPDEKQYDTVETQLRFMTENGFSLRDGLYAISAVSHFTLGAVLEQQEHTAALTDRPAAPDENLPPLLREALQIMDSDDGEQAFLHGLESLIRGFEVQLTALLQIV
modifications: Modified tetracycline repressor
notes: revTetR(BD) G96N V99H
Regarding B8, the “β-Galactosidase Activity, Cultured Without ATC” value came out at 103.657 and the “β-Galactosidase Activity, Cultured With ATC” value is given as 24.309.

B9: TetRrev96/99-5: revTetR(BD) G96I V99K (protein)
chain: MSRLDKSKVINSALELLNEVGIEGLTTRKLAQKLGVEQPTLYWHVKNKRALLDALAVEILARHHDYSLPAAGESWQSFLRNNAMSFRRALLRYRDIAKKHLGTRPDEKQYDTVETQLRFMTENGFSLRDGLYAISAVSHFTLGAVLEQQEHTAALTDRPAAPDENLPPLLREALQIMDSDDGEQAFLHGLESLIRGFEVQLTALLQIV
modifications: Modified tetracycline repressor
notes: revTetR(BD) G96I V99K
Regarding B9, the “β-Galactosidase Activity, Cultured Without ATC” value was 57.8391 and the “β-Galactosidase Activity, Cultured With ATC” value was determined as 17.087.

B10: TetRrev96/99-6: revTetR(BD) G96N V99Q (protein)
chain: MSRLDKSKVINSALELLNEVGIEGLTTRKLAQKLGVEQPTLYWHVKNKRALLDALAVEILARHHDYSLPAAGESWQSFLRNNAMSFRRALLRYRDNAKQHLGTRPDEKQYDTVETQLRFMTENGFSLRDGLYAISAVSHFTLGAVLEQQEHTAALTDRPAAPDENLPPLLREALQIMDSDDGEQAFLHGLESLIRGFEVQLTALLQIV
modifications: Modified tetracycline repressor
notes: revTetR(BD) G96N V99Q
Regarding B10, the “β-Galactosidase Activity, Cultured Without ATC” value was 103.602 and the “β-Galactosidase Activity, Cultured With ATC” value was 28.364.

B11: TetRrev96/99-11: revTetR(BD) G96R V99Y (protein)
chain: MSRLDKSKVINSALELLNEVGIEGLTTRKLAQKLGVEQPTLYWHVKNKRALLDALAVEILARHHDYSLPAAGESWQSFLRNNAMSFRRALLRYRDRAKYHLGTRPDEKQYDTVETQLRFMTENGFSLRDGLYAISAVSHFTLGAVLEQQEHTAALTDRPAAPDENLPPLLREALQIMDSDDGEQAFLHGLESLIRGFEVQLTALLQIV
modifications: Modified tetracycline repressor
notes: revTetR(BD) G96R V99Y
With B11, the “β-Galactosidase Activity, Cultured Without ATC” value amounted to 97.6643 and the “β-Galactosidase Activity, Cultured With ATC” value was found to be 18.656.

B12: TetRrevAtc4-16: revTetR(BD) D53N A54G V57F I59S L60F (protein)
chain: MSRLDKSKVINSALELLNEVGIEGLTTRKLAQKLGVEQPTLYWHVKNKRALLNGLAFESFARHHDYSLPAAGESWQSFLRNNAMSFRRALLRYRDGAKVHLGTRPDEKQYDTVETQLRFMTENGFSLRDGLYAISAVSHFTLGAVLEQQEHTAALTDRPAAPDENLPPLLREALQIMDSDDGEQAFLHGLESLIRGFEVQLTALLQIV
modifications: Modified tetracycline repressor
notes: revTetR(BD) D53N A54G V57F I59S L60F
As for B12, the “β-Galactosidase Activity, Cultured Without ATC” value amounted to 104.174 and the “β-Galactosidase Activity, Cultured With ATC” value was found to be 16.914.

B13: TetRrev96/99-1: revTetR(BD) G96H V99R (protein)
chain: MSRLDKSKVINSALELLNEVGIEGLTTRKLAQKLGVEQPTLYWHVKNKRALLDALAVEILARHHDYSLPAAGESWQSFLRNNAMSFRRALLRYRDHAKRHLGTRPDEKQYDTVETQLRFMTENGFSLRDGLYAISAVSHFTLGAVLEQQEHTAALTDRPAAPDENLPPLLREALQIMDSDDGEQAFLHGLESLIRGFEVQLTALLQIV
modifications: Modified tetracycline repressor
notes: revTetR(BD) G96H V99R
As to B13, the “β-Galactosidase Activity, Cultured Without ATC” value worked out at 58.4545 and the “β-Galactosidase Activity, Cultured With ATC” value worked out at 25.484.

B14: TetRrev96/99-3: revTetR(BD) G96E V99T (protein)
chain: MSRLDKSKVINSALELLNEVGIEGLTTRKLAQKLGVEQPTLYWHVKNKRALLDALAVEILARHHDYSLPAAGESWQSFLRNNAMSFRRALLRYRDEAKTHLGTRPDEKQYDTVETQLRFMTENGFSLRDGLYAISAVSHFTLGAVLEQQEHTAALTDRPAAPDENLPPLLREALQIMDSDDGEQAFLHGLESLIRGFEVQLTALLQIV
modifications: Modified tetracycline repressor
notes: revTetR(BD) G96E V99T
On to B14, for which the “β-Galactosidase Activity, Cultured Without ATC” value amounted to 103.749 and the “β-Galactosidase Activity, Cultured With ATC” value came out at 31.808.

B15: TetRrev96/99-10: revTetR(BD) G96N V99P (protein)
chain: MSRLDKSKVINSALELLNEVGIEGLTTRKLAQKLGVEQPTLYWHVKNKRALLDALAVEILARHHDYSLPAAGESWQSFLRNNAMSFRRALLRYRDNAKPHLGTRPDEKQYDTVETQLRFMTENGFSLRDGLYAISAVSHFTLGAVLEQQEHTAALTDRPAAPDENLPPLLREALQIMDSDDGEQAFLHGLESLIRGFEVQLTALLQIV
modifications: Modified tetracycline repressor
notes: revTetR(BD) G96N V99P
In the case of B15, the “β-Galactosidase Activity, Cultured Without ATC” value came to 106.137 and the “β-Galactosidase Activity, Cultured With ATC” value worked out at 20.797.

These data come from US20030186281A1, “Modified tetracycline repressor protein compositions and methods of use” (priority 2001, published 2003).
